Assay results taken from US20170189513A1.
Where no end group is shown, it is not given here.

B1: … (SEQ ID No 272) (peptide)
peptide: QYLQDAYSF
B2: … (SEQ ID No 208) (peptide)
peptide: TYTQDFNKF
B3: … (SEQ ID No 274) (peptide)
peptide: AYLHSHALI
B4: … (SEQ ID No 282) (peptide)
peptide: KFVDSTFYL
B5: … (SEQ ID No 181) (peptide)
peptide: LYLDIINLF
B6: … (SEQ ID No 283) (peptide)
peptide: TYGDAGLTYTF
B7: … (SEQ ID No 216) (peptide)
peptide: QYSSVFKSL
B8: … (SEQ ID No 227) (peptide)
peptide: IFLDYEAGTLSF
B9: … (SEQ ID No 172) (peptide)
peptide: TYTTVPRVAF
B10: … (SEQ ID No 219) (peptide)
peptide: EYPLVINTL
B11: … (SEQ ID No 221) (peptide)
peptide: RYSTGLAGNLL
B12: … (SEQ ID No 289) (peptide)
peptide: KYPVEWAKF
B13: … (SEQ ID No 273) (peptide)
peptide: TYIKPISKL
B14: … (SEQ ID No 192) (peptide)
peptide: SYALLTYMI
B15: … (SEQ ID No 190) (peptide)
peptide: GFFIFNERF
B16: … (SEQ ID No 193) (peptide)
peptide: RFHPTPLLL
B17: RYFKGLVF (SEQ ID No 188) (peptide)
peptide: RYFKGLVF
B18: … (SEQ ID No 210) (peptide)
peptide: IYTMIYRNL
B19: … (SEQ ID No 288) (peptide)
peptide: VYVSDIQEL
B20: … (SEQ ID No 226) (peptide)
peptide: VYRDETGELF
B21: … (SEQ ID No 182) (peptide)
peptide: IYQLDTASI
B22: … (SEQ ID No 180) (peptide)
peptide: IYDDSFIRPVTF
B23: … (SEQ ID No 228) (peptide)
peptide: KYTSWYVAL
B24: … (SEQ ID No 194) (peptide)
peptide: EFGSLHLEFL
B25: … (SEQ ID No 206) (peptide)
peptide: EYQENFLSF
B26: … (SEQ ID No 189) (peptide)
peptide: WYVNGVNYF
B27: … (SEQ ID No 214) (peptide)
peptide: LYLKLWNLI
B28: … (SEQ ID No 211) (peptide)
peptide: YYLEVGKTLI
B29: … (SEQ ID No 278) (peptide)
peptide: RYISDQLFTNF
B30: … (SEQ ID No 280) (peptide)
peptide: RYPDNLKHLYL
B31: … (SEQ ID No 286) (peptide)
peptide: RYPDNLKHL
B32: … (SEQ ID No 225) (peptide)
peptide: YYVYIMNHL
B33: … (SEQ ID No 183) (peptide)
peptide: VFTSTARAF
B34: … (SEQ ID No 177) (peptide)
peptide: VYPWLGALL
B35: … (SEQ ID No 284) (peptide)
peptide: RYLNKAFHI
B36: YFDKVVTL (SEQ ID No 215) (peptide)
peptide: YFDKVVTL
B37: … (SEQ ID No 179) (peptide)
peptide: MYDSYWRQF
B38: … (SEQ ID No 187) (peptide)
peptide: TYLRDQHFL
B39: … (SEQ ID No 279) (peptide)
peptide: TYIESASEL
B40: … (SEQ ID No 198) (peptide)
peptide: LYLDKATLI
B41: … (SEQ ID No 224) (peptide)
peptide: QYLENLEKL
B42: … (SEQ ID No 186) (peptide)
peptide: IFPQFLYQF
B43: … (SEQ ID No 205) (peptide)
peptide: VHIPEVYLI
B44: … (SEQ ID No 271) (peptide)
peptide: LYHDIFSRL
B45: … (SEQ ID No 267) (peptide)
peptide: KYMVYPQTF
B46: … (SEQ ID No 191) (peptide)
peptide: VFKASKITF
B47: … (SEQ ID No 178) (peptide)
peptide: IFIEVFSHF
B48: … (SEQ ID No 203) (peptide)
peptide: FYSRLLQKF
B49: … (SEQ ID No 185) (peptide)
peptide: IYKVGAPTI
B50: … (SEQ ID No 184) (peptide)
peptide: VFQNFPLLF
B51: … (SEQ ID No 275) (peptide)
peptide: EYINQGDLHEF
B52: … (SEQ ID No 223) (peptide)
peptide: KYIPYKYVI
B53: … (SEQ ID No 276) (peptide)
peptide: VYGFQWRHF
B54: … (SEQ ID No 217) (peptide)
peptide: FFPPTRQMGLLF

biological target: HLA-A*24 (human); assay: UV-ligand exchange, b2m ELISA

Compared with B1, B2 is lower in peptide exchange yield: over 75% for the first, 50 to 75% for the second.

B3 and B4 cannot be ordered by peptide exchange yield: over 75% for the first, over 75% for the second.

First: B5
Second: B6
The peptide exchange yield of the first is higher: over 75% for the first, 50 to 75% for the second.

B7 and B8 cannot be ordered by peptide exchange yield: over 75% for the first, over 75% for the second.

First: B9
Second: B10
The peptide exchange yield of the first is higher: over 75% for the first, 50 to 75% for the second.

First: B11
Second: B12
The peptide exchange yield of the first is lower: 50 to 75% for the first, over 75% for the second.

First: B13
Second: B14
The peptide exchange yield of the first is lower: 50 to 75% for the first, over 75% for the second.

First: B15
Second: B16
The peptide exchange yield of the first is lower: 50 to 75% for the first, over 75% for the second.

First: B17
Second: B18
The peptide exchange yield of the first is lower: 50 to 75% for the first, over 75% for the second.

B19 and B20 fall in the same range of peptide exchange yield: 50 to 75% for the first, 50 to 75% for the second.

B21 and B22 fall in the same range of peptide exchange yield: 50 to 75% for the first, 50 to 75% for the second.

Compared with B23, B24 is lower in peptide exchange yield: over 75% for the first, under 20% for the second.

First: B25
Second: B26
The peptide exchange yield of the first is higher: 50 to 75% for the first, 20 to 49% for the second.

First: B27
Second: B28
The peptide exchange yield of the first is lower: 50 to 75% for the first, over 75% for the second.

B29 and B30 cannot be ordered by peptide exchange yield: over 75% for the first, over 75% for the second.

First: B31
Second: B32
The peptide exchange yield of the first is lower: 20 to 49% for the first, 50 to 75% for the second.

First: B33
Second: B34
The peptide exchange yield of the first is lower: 50 to 75% for the first, over 75% for the second.

First: B35
Second: B36
The peptide exchange yield of the first is higher: 50 to 75% for the first, 20 to 49% for the second.

B37 and B38 cannot be ordered by peptide exchange yield: over 75% for the first, over 75% for the second.

B39 and B40 fall in the same range of peptide exchange yield: 50 to 75% for the first, 50 to 75% for the second.

First: B41
Second: B42
The peptide exchange yield of the first is lower: 50 to 75% for the first, over 75% for the second.

First: B43
Second: B44
The peptide exchange yield of the first is lower: 50 to 75% for the first, over 75% for the second.

First: B45
Second: B46
The peptide exchange yield of the first is higher: over 75% for the first, 50 to 75% for the second.

B47 and B48 fall in the same range of peptide exchange yield: 50 to 75% for the first, 50 to 75% for the second.

Compared with B49, B50 is higher in peptide exchange yield: 50 to 75% for the first, over 75% for the second.

B51 and B52 fall in the same range of peptide exchange yield: 50 to 75% for the first, 50 to 75% for the second.

B53 and B54 cannot be ordered by peptide exchange yield: over 75% for the first, over 75% for the second.
